The target of test [1] is HMGB1 (high mobility group box 1). Kind of test: cell-based or functional assay.
The target of test [2] is S100B. Kind of test: cell-based or functional assay.
Test [3] addresses S100B. Kind of test: BIAcore SPR, sRAGE amine-coupled to CM5 chip, S100B as analyte, steady state model. On the technique in general: In SPR one partner is held on a chip, and binding of the other changes the refractive index at the surface.
The target of test [4] is HMGB1 (high mobility group box 1). Kind of test: HMGB1 ELISA (as in Liu et al. 2009). For orientation: In an ELISA, binding on a coated surface is turned into a signal by an enzyme label.
The target is the same in test [5]. Kind of test: BIAcore SPR, sRAGE amine-coupled to CM5 chip, HMGB1 as analyte, 1:1 Langmuir model.

sRAGE^CHO(desialylated), sequence (Q15109 other isoform, or with tags, fused parts or gaps): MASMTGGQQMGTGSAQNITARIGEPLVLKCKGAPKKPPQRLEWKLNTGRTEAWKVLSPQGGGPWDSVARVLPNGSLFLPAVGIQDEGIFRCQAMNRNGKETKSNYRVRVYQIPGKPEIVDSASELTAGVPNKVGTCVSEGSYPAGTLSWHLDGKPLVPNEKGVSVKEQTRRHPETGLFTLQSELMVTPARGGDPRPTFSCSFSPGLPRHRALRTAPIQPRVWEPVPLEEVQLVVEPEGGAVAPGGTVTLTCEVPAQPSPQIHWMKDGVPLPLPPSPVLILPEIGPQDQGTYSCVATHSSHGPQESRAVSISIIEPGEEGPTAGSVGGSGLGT
sRAGE^CHO (human T7-Gly-Ser-RAGE (23-340) polypeptide produced in CHO-CD14 cells), sequence (Q15109 other isoform, or with tags, fused parts or gaps): as above
sRAGE^sf9 (human T7-sRAGE produced in baculovirus-infected sf9 insect cells), sequence (Q15109 23-340, tags or fused parts left off): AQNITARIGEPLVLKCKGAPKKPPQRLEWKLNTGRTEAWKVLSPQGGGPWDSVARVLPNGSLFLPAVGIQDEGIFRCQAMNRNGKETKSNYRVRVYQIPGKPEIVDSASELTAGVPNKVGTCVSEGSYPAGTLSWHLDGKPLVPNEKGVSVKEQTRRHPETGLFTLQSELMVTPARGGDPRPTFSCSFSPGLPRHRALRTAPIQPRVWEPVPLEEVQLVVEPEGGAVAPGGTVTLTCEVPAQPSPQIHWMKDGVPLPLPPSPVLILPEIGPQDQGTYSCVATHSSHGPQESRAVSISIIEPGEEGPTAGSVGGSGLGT
HMGB1 (high mobility group box 1), sequence (P09429 whole entry): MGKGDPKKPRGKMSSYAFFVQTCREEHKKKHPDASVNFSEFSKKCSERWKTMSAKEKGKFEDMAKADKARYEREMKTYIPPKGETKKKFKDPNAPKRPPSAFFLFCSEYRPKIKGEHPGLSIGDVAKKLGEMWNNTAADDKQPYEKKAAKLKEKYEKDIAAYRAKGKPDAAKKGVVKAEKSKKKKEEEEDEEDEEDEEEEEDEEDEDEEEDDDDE
S100B, sequence (D3DSN6 whole entry): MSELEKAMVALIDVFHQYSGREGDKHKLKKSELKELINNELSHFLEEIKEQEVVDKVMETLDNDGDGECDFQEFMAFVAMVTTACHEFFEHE

One may read the Kd as the free concentration of one partner at which half of the binding sites on the other are occupied at equilibrium, for simple one-to-one binding. The low end stands for tighter binding, the high end for weaker binding. Turning to “sRAGE^sf9 (human T7-sRAGE produced in baculovirus-infected sf9 insect cells) (from UniProt Q15109 23-340) (receptor)”, the inhibition of HMGB1-induced NF-κB activity (luciferase reporter, HEK293-RAGE cells; 100 nM ligand, 100 nM sRAGE) in test [1] was 19.7%. The substance also displayed an inhibition of s100B-induced NF-κB activity (luciferase reporter, HEK293-RAGE cells; 100 nM ligand, 100 nM sRAGE) in the test with S100B [2] of 20.4%. Also, the Kd with S100B [3] worked out at 32 nM.

In test [1], “sRAGE^CHO(N25T/N81T) (from UniProt Q15109 26-340) (receptor)” displayed an inhibition of HMGB1-induced NF-κB activity (luciferase reporter, HEK293-RAGE cells; 100 nM ligand, 100 nM sRAGE) of 0.3%. For the same substance, in test [4], the Kd was found to be 521 nM and the fold of the dissociation constant (Kd) against wild-type sRAGE was determined as 10 fold.

As to “sRAGE^CHO (human T7-Gly-Ser-RAGE (23-340) polypeptide produced in CHO-CD14 cells) (from UniProt Q15109 23-340) (receptor)”, in test [1], the inhibition of HMGB1-induced NF-κB activity (luciferase reporter, HEK293-RAGE cells; 100 nM ligand, 100 nM sRAGE) is 58.6%. The substance also yielded an inhibition of s100B-induced NF-κB activity (luciferase reporter, HEK293-RAGE cells; 100 nM ligand, 100 nM sRAGE) in the test with S100B [2] of 40.2%. Further, the Kd in test [4] was determined as 49.5 nM; in test [5], 13.3 nM; with S100B [3] it was 90.5 nM.

“sRAGE^CHO(desialylated) (from UniProt Q15109 23-340) (receptor)” gave an inhibition of HMGB1-induced NF-κB activity (luciferase reporter, HEK293-RAGE cells; 100 nM ligand, 100 nM sRAGE) in test [1] of 25.8%. In the test with S100B [2], this substance registered an inhibition of s100B-induced NF-κB activity (luciferase reporter, HEK293-RAGE cells; 100 nM ligand, 100 nM sRAGE) of 18%. This substance also showed a dissociation constant (Kd) with S100B [3] of 25.3 nM.

(Values after US20150051136A1.)
